Measurements: article PMC4912689, “The Extracellular Surface of the GLP-1 Receptor Is a Molecular Trigger for Biased Agonism” (Cell, 2016)

B1: glucagon-like peptide 1 receptor (GLP-1R), wild-type, P43220 Y289A (protein)
chain: RPQGATVSLWETVQKWREYRRQCQRSLTEDPPPATDLFCNRTFDEYACWPDGEPGSFVNVSCPWYLPWASSVPQGHVYRFCTAEGLWLQKDNSSLPWRDLSECEESKRGERSSPEEQLLFLYIIYTVGYALSFSALVIASAILLGFRHLHCTRNYIHLNLFASFILRALSVFIKDAALKWMYSTAAQQHQWDGLLSYQDSLSCRLVFLLMQYCVAANYYWLLVEGVYLYTLLAFSVLSEQWIFRLYVSIGWGVPLLFVVPWGIVKALYEDEGCWTRNSNMNYWLIIRLPILFAIGVNFLIFVRVICIVVSKLKANLMCKTDIKCRLAKSTLTLIPLLGTHEVIFAFVMDEHARGTLRFIKLFTELSFTSFQGLMVAILYCFVNNEVQLEFRKSWERWRLEHLHIQRDSSMKPLKCPTSSLSSGATAGSSMYTATCQASCS
B2: glucagon-like peptide 1 receptor (GLP-1R), wild-type, P43220 S301A (protein)
chain: RPQGATVSLWETVQKWREYRRQCQRSLTEDPPPATDLFCNRTFDEYACWPDGEPGSFVNVSCPWYLPWASSVPQGHVYRFCTAEGLWLQKDNSSLPWRDLSECEESKRGERSSPEEQLLFLYIIYTVGYALSFSALVIASAILLGFRHLHCTRNYIHLNLFASFILRALSVFIKDAALKWMYSTAAQQHQWDGLLSYQDSLSCRLVFLLMQYCVAANYYWLLVEGVYLYTLLAFSVLSEQWIFRLYVSIGWGVPLLFVVPWGIVKYLYEDEGCWTRNANMNYWLIIRLPILFAIGVNFLIFVRVICIVVSKLKANLMCKTDIKCRLAKSTLTLIPLLGTHEVIFAFVMDEHARGTLRFIKLFTELSFTSFQGLMVAILYCFVNNEVQLEFRKSWERWRLEHLHIQRDSSMKPLKCPTSSLSSGATAGSSMYTATCQASCS
B3: glucagon-like peptide 1 receptor (GLP-1R), wild-type, P43220 F385A (protein)
chain: RPQGATVSLWETVQKWREYRRQCQRSLTEDPPPATDLFCNRTFDEYACWPDGEPGSFVNVSCPWYLPWASSVPQGHVYRFCTAEGLWLQKDNSSLPWRDLSECEESKRGERSSPEEQLLFLYIIYTVGYALSFSALVIASAILLGFRHLHCTRNYIHLNLFASFILRALSVFIKDAALKWMYSTAAQQHQWDGLLSYQDSLSCRLVFLLMQYCVAANYYWLLVEGVYLYTLLAFSVLSEQWIFRLYVSIGWGVPLLFVVPWGIVKYLYEDEGCWTRNSNMNYWLIIRLPILFAIGVNFLIFVRVICIVVSKLKANLMCKTDIKCRLAKSTLTLIPLLGTHEVIFAFVMDEHARGTLRFIKLATELSFTSFQGLMVAILYCFVNNEVQLEFRKSWERWRLEHLHIQRDSSMKPLKCPTSSLSSGATAGSSMYTATCQASCS
B4: glucagon-like peptide 1 receptor (GLP-1R), wild-type, P43220 G377A (protein)
chain: RPQGATVSLWETVQKWREYRRQCQRSLTEDPPPATDLFCNRTFDEYACWPDGEPGSFVNVSCPWYLPWASSVPQGHVYRFCTAEGLWLQKDNSSLPWRDLSECEESKRGERSSPEEQLLFLYIIYTVGYALSFSALVIASAILLGFRHLHCTRNYIHLNLFASFILRALSVFIKDAALKWMYSTAAQQHQWDGLLSYQDSLSCRLVFLLMQYCVAANYYWLLVEGVYLYTLLAFSVLSEQWIFRLYVSIGWGVPLLFVVPWGIVKYLYEDEGCWTRNSNMNYWLIIRLPILFAIGVNFLIFVRVICIVVSKLKANLMCKTDIKCRLAKSTLTLIPLLGTHEVIFAFVMDEHARATLRFIKLFTELSFTSFQGLMVAILYCFVNNEVQLEFRKSWERWRLEHLHIQRDSSMKPLKCPTSSLSSGATAGSSMYTATCQASCS
B5: glucagon-like peptide 1 receptor (GLP-1R), wild-type, P43220 L379A (protein)
chain: RPQGATVSLWETVQKWREYRRQCQRSLTEDPPPATDLFCNRTFDEYACWPDGEPGSFVNVSCPWYLPWASSVPQGHVYRFCTAEGLWLQKDNSSLPWRDLSECEESKRGERSSPEEQLLFLYIIYTVGYALSFSALVIASAILLGFRHLHCTRNYIHLNLFASFILRALSVFIKDAALKWMYSTAAQQHQWDGLLSYQDSLSCRLVFLLMQYCVAANYYWLLVEGVYLYTLLAFSVLSEQWIFRLYVSIGWGVPLLFVVPWGIVKYLYEDEGCWTRNSNMNYWLIIRLPILFAIGVNFLIFVRVICIVVSKLKANLMCKTDIKCRLAKSTLTLIPLLGTHEVIFAFVMDEHARGTARFIKLFTELSFTSFQGLMVAILYCFVNNEVQLEFRKSWERWRLEHLHIQRDSSMKPLKCPTSSLSSGATAGSSMYTATCQASCS
B6: glucagon-like peptide 1 receptor (GLP-1R), wild-type, P43220 T378A (protein)
chain: RPQGATVSLWETVQKWREYRRQCQRSLTEDPPPATDLFCNRTFDEYACWPDGEPGSFVNVSCPWYLPWASSVPQGHVYRFCTAEGLWLQKDNSSLPWRDLSECEESKRGERSSPEEQLLFLYIIYTVGYALSFSALVIASAILLGFRHLHCTRNYIHLNLFASFILRALSVFIKDAALKWMYSTAAQQHQWDGLLSYQDSLSCRLVFLLMQYCVAANYYWLLVEGVYLYTLLAFSVLSEQWIFRLYVSIGWGVPLLFVVPWGIVKYLYEDEGCWTRNSNMNYWLIIRLPILFAIGVNFLIFVRVICIVVSKLKANLMCKTDIKCRLAKSTLTLIPLLGTHEVIFAFVMDEHARGALRFIKLFTELSFTSFQGLMVAILYCFVNNEVQLEFRKSWERWRLEHLHIQRDSSMKPLKCPTSSLSSGATAGSSMYTATCQASCS
B7: glucagon-like peptide 1 receptor (GLP-1R), wild-type, P43220 R299A (protein)
chain: RPQGATVSLWETVQKWREYRRQCQRSLTEDPPPATDLFCNRTFDEYACWPDGEPGSFVNVSCPWYLPWASSVPQGHVYRFCTAEGLWLQKDNSSLPWRDLSECEESKRGERSSPEEQLLFLYIIYTVGYALSFSALVIASAILLGFRHLHCTRNYIHLNLFASFILRALSVFIKDAALKWMYSTAAQQHQWDGLLSYQDSLSCRLVFLLMQYCVAANYYWLLVEGVYLYTLLAFSVLSEQWIFRLYVSIGWGVPLLFVVPWGIVKYLYEDEGCWTANSNMNYWLIIRLPILFAIGVNFLIFVRVICIVVSKLKANLMCKTDIKCRLAKSTLTLIPLLGTHEVIFAFVMDEHARGTLRFIKLFTELSFTSFQGLMVAILYCFVNNEVQLEFRKSWERWRLEHLHIQRDSSMKPLKCPTSSLSSGATAGSSMYTATCQASCS
B8: glucagon-like peptide 1 receptor (GLP-1R), wild-type, P43220 C296A (protein)
chain: RPQGATVSLWETVQKWREYRRQCQRSLTEDPPPATDLFCNRTFDEYACWPDGEPGSFVNVSCPWYLPWASSVPQGHVYRFCTAEGLWLQKDNSSLPWRDLSECEESKRGERSSPEEQLLFLYIIYTVGYALSFSALVIASAILLGFRHLHCTRNYIHLNLFASFILRALSVFIKDAALKWMYSTAAQQHQWDGLLSYQDSLSCRLVFLLMQYCVAANYYWLLVEGVYLYTLLAFSVLSEQWIFRLYVSIGWGVPLLFVVPWGIVKYLYEDEGAWTRNSNMNYWLIIRLPILFAIGVNFLIFVRVICIVVSKLKANLMCKTDIKCRLAKSTLTLIPLLGTHEVIFAFVMDEHARGTLRFIKLFTELSFTSFQGLMVAILYCFVNNEVQLEFRKSWERWRLEHLHIQRDSSMKPLKCPTSSLSSGATAGSSMYTATCQASCS
B9: glucagon-like peptide 1 receptor (GLP-1R), wild-type, P43220 R376A (protein)
chain: RPQGATVSLWETVQKWREYRRQCQRSLTEDPPPATDLFCNRTFDEYACWPDGEPGSFVNVSCPWYLPWASSVPQGHVYRFCTAEGLWLQKDNSSLPWRDLSECEESKRGERSSPEEQLLFLYIIYTVGYALSFSALVIASAILLGFRHLHCTRNYIHLNLFASFILRALSVFIKDAALKWMYSTAAQQHQWDGLLSYQDSLSCRLVFLLMQYCVAANYYWLLVEGVYLYTLLAFSVLSEQWIFRLYVSIGWGVPLLFVVPWGIVKYLYEDEGCWTRNSNMNYWLIIRLPILFAIGVNFLIFVRVICIVVSKLKANLMCKTDIKCRLAKSTLTLIPLLGTHEVIFAFVMDEHAAGTLRFIKLFTELSFTSFQGLMVAILYCFVNNEVQLEFRKSWERWRLEHLHIQRDSSMKPLKCPTSSLSSGATAGSSMYTATCQASCS
B10: glucagon-like peptide 1 receptor (GLP-1R), wild-type, P43220 L384A (protein)
chain: RPQGATVSLWETVQKWREYRRQCQRSLTEDPPPATDLFCNRTFDEYACWPDGEPGSFVNVSCPWYLPWASSVPQGHVYRFCTAEGLWLQKDNSSLPWRDLSECEESKRGERSSPEEQLLFLYIIYTVGYALSFSALVIASAILLGFRHLHCTRNYIHLNLFASFILRALSVFIKDAALKWMYSTAAQQHQWDGLLSYQDSLSCRLVFLLMQYCVAANYYWLLVEGVYLYTLLAFSVLSEQWIFRLYVSIGWGVPLLFVVPWGIVKYLYEDEGCWTRNSNMNYWLIIRLPILFAIGVNFLIFVRVICIVVSKLKANLMCKTDIKCRLAKSTLTLIPLLGTHEVIFAFVMDEHARGTLRFIKAFTELSFTSFQGLMVAILYCFVNNEVQLEFRKSWERWRLEHLHIQRDSSMKPLKCPTSSLSSGATAGSSMYTATCQASCS
B11: glucagon-like peptide 1 receptor (GLP-1R), wild-type, P43220 W214A (protein)
chain: RPQGATVSLWETVQKWREYRRQCQRSLTEDPPPATDLFCNRTFDEYACWPDGEPGSFVNVSCPWYLPWASSVPQGHVYRFCTAEGLWLQKDNSSLPWRDLSECEESKRGERSSPEEQLLFLYIIYTVGYALSFSALVIASAILLGFRHLHCTRNYIHLNLFASFILRALSVFIKDAALKWMYSTAAQQHQADGLLSYQDSLSCRLVFLLMQYCVAANYYWLLVEGVYLYTLLAFSVLSEQWIFRLYVSIGWGVPLLFVVPWGIVKYLYEDEGCWTRNSNMNYWLIIRLPILFAIGVNFLIFVRVICIVVSKLKANLMCKTDIKCRLAKSTLTLIPLLGTHEVIFAFVMDEHARGTLRFIKLFTELSFTSFQGLMVAILYCFVNNEVQLEFRKSWERWRLEHLHIQRDSSMKPLKCPTSSLSSGATAGSSMYTATCQASCS
B12: glucagon-like peptide 1 receptor (GLP-1R), wild-type, P43220 E373A (protein)
chain: RPQGATVSLWETVQKWREYRRQCQRSLTEDPPPATDLFCNRTFDEYACWPDGEPGSFVNVSCPWYLPWASSVPQGHVYRFCTAEGLWLQKDNSSLPWRDLSECEESKRGERSSPEEQLLFLYIIYTVGYALSFSALVIASAILLGFRHLHCTRNYIHLNLFASFILRALSVFIKDAALKWMYSTAAQQHQWDGLLSYQDSLSCRLVFLLMQYCVAANYYWLLVEGVYLYTLLAFSVLSEQWIFRLYVSIGWGVPLLFVVPWGIVKYLYEDEGCWTRNSNMNYWLIIRLPILFAIGVNFLIFVRVICIVVSKLKANLMCKTDIKCRLAKSTLTLIPLLGTHEVIFAFVMDAHARGTLRFIKLFTELSFTSFQGLMVAILYCFVNNEVQLEFRKSWERWRLEHLHIQRDSSMKPLKCPTSSLSSGATAGSSMYTATCQASCS
B13: glucagon-like peptide 1 receptor (GLP-1R), wild-type, P43220 L217A (protein)
chain: RPQGATVSLWETVQKWREYRRQCQRSLTEDPPPATDLFCNRTFDEYACWPDGEPGSFVNVSCPWYLPWASSVPQGHVYRFCTAEGLWLQKDNSSLPWRDLSECEESKRGERSSPEEQLLFLYIIYTVGYALSFSALVIASAILLGFRHLHCTRNYIHLNLFASFILRALSVFIKDAALKWMYSTAAQQHQWDGALSYQDSLSCRLVFLLMQYCVAANYYWLLVEGVYLYTLLAFSVLSEQWIFRLYVSIGWGVPLLFVVPWGIVKYLYEDEGCWTRNSNMNYWLIIRLPILFAIGVNFLIFVRVICIVVSKLKANLMCKTDIKCRLAKSTLTLIPLLGTHEVIFAFVMDEHARGTLRFIKLFTELSFTSFQGLMVAILYCFVNNEVQLEFRKSWERWRLEHLHIQRDSSMKPLKCPTSSLSSGATAGSSMYTATCQASCS

What follows are binders tested against exendin-4, P26349 (assay: radioligand inhibition binding (competition with 125I-exendin-4(9-39))). Conditions: chain shown with the change;; read off a plot.

Q: B1 was tested. Which log10 ratio did it give?
A: 0 ΔpKi

Q: With B2 as the binder, how does the log10 ratio read?
A: -0.3 ΔpKi

Q: With B3 as the binder, how does the log10 ratio read?
A: -0.2 ΔpKi

Q: With B4 as the binder, how does the log10 ratio read?
A: -0.4 ΔpKi

Q: B5 was tested. Which log10 ratio did it give?
A: -0.95 ΔpKi

Q: How did the log10 ratio turn out when B6 was run?
A: -0.5 ΔpKi

Q: For B7, which log10 ratio is on record?
A: -1.5 ΔpKi

Q: How did the log10 ratio turn out when B8 was run?
A: -1.8 ΔpKi

Q: B9 was tested. Which log10 ratio did it give?
A: -0.35 ΔpKi

Q: B10 was tested. Which log10 ratio did it give?
A: -1.2 ΔpKi

Q: With B11 as the binder, how does the log10 ratio read?
A: -0.25 ΔpKi

Q: For B12, which log10 ratio is on record?
A: -1.3 ΔpKi

Q: B13 was tested. Which log10 ratio did it give?
A: -0.3 ΔpKi
